Results taken from patent publication US6416758B1 (Board of Regents, The University of Texax System, priority 1999, dated 2002).

Assays:
[1] = Blood clearance of radioiodinated 2C3-GUS; assay type: in vivo, mouse; conditions: 125I-labelled, intravenous injection into mice
Description: 2C3-GUS was radioiodinated with ^125I to a specific activity of 5×10^6 cpm/μg. After intravenous injection into mice, the radioiodinated 2C3-GUS cleared from the blood with a t½α of about 6 hours and a t 1/2β of about 25 hours.

[2] = tested on: human NCI-H358 NSCLC tumors; test: In vivo localization of 2C3-GUS; parameters: species or system mouse; conditions: SCID mice bearing s.c. NCI-H358
GUS enzymatic activity = assay type: biochemical
Source text: The 6-His GUS was pure based upon SDS-PAGE, where it ran as a single band of 75 kDa band. On gel filtration columns, the 6-His GUS runs as a tetramer of about 300 kDa.

[3] = tested on: VEGF-mediated growth of ABAE cells; test: Endothelial cell growth assay (MTS); assay type: cell-based, bovine; conditions: Table 5
Description: ABAE cells were grown in the presence of the various indicated antibodies and 0.5 nM VEGF. Growth after 4 days was determined colorimetrically by the enzymatic conversion of MTS (Owen's reagent) to a yellow formazan. […] Background was determined by growing cells without VEGF or antibody and was subtracted from the control and sample wells.
Adult bovine aortic endothelial (ABAE) cells were plated into 96-well tissue culture plates at 1500 cells/well and grown in the presence of 0.5 nM human VEGF with the addition of the various sample and control antibodies. Control wells received media with or without VEGF.
After 4 days of incubation, the cells were quantified by an MTS (3-(4,5-dimethylthiazol-2-yl)-5-(3-carboxylmethoxyphenyl)-2-(4-sulfophenyl)-2H-tetrazolium, inner salt) conversion assay, where MTS conversion to a formazan is proportional to cell number and can be followed by absorbance at 490 nm (Cell Titer 96 AQueous One Solution Cell Proliferation Assay, Promega, Madison, Wis.). The assay was performed according to the manufacturer's instructions.
Cell growth was estimated by subtracting the MTS conversion in cultures to which VEGF was not added. Results were expressed as a percentage of the MTS conversion in control cultures to which only VEGF was added (Buttke et al., 1993).

NCI-H358 NSCLC tumors = test: Treatment of established NCI-H358 xenografts; assay type: in vivo, mouse
Description: FIG. 4. […] Mean tumor volume along with the SEM over 116 days is shown.
(§1) FIG. 5A and FIG. 5B. […] Treatments (T) were 100 μg of the IgG given i.p., except for the initial treatment that consisted of 500 μg of the IgG given i.v. Mean tumor volume along with the SEM is shown. At the end of the study (day 116), the mice were sacrificed and the tumors dissected out and weighed. […] The mice were treated every other day as indicated (T). […] Mean tumor volume along with the SE is shown.
(§2) Male nu/nu mice bearing subcutaneous NCI-H358 tumors or HT1080 fibrosarcoma 200-400 mm^3 in size were injected i.p. with test or control antibodies. The NCI-H358 bearing mice were treated with 100 μg of antibodies per injection three times a week during the first week and twice a week during the second and third week. The mice were then switched to 50 μg per injection every five days. The HT1080 bearing mice were treated with 100 μg of the indicated antibody or saline every other day throughout the duration of the study. In both studies, mice were sacrificed when their tumors reached 2500 mm^3 size or earlier if tumors began to ulcerate.
Doses were 50-100 μg every 3-5 days. […] In addition to measuring mean tumor volume (FIG. 4), photographs of the mice from each treatment group were also taken to show the differences in tumor size and appearance at the end of the study.

NCI-H358 NSCLC = test: Growth inhibition of newly-implanted NCI-H358 xenografts; assay type: in vivo, mouse; conditions: 100 μg i.p. 2 times per wk from day 1, nu/nu mice
Description: (§3) FIG. 3A and FIG. 3B. […] FIG. 3A: 1×10^7 NCI-H358 NSCLC cells were injected subcutaneously into nu/nu mice on day 0. FIG. 3B: 5×10^6 A673 rhabdomyosarcoma cells were injected subcutaneously into nu/nu mice on day 0. Mice were injected i.p. with the indicated IgG on day 1 and 2 times/week thereafter. […] Tumors were measured 2-3 times per week. Mean and standard error is shown for the duration of the study in FIG. 3A, while data for the last day of the study (day 26) is shown in FIG. 3B.
(§4) Nu/nu mice were injected subcutaneously with either 1×10^7 NCI-H358 NSCLC cells or 5×10^6 A673 rhabdomyosarcoma cells on day 0. […] The tumors were then measured twice per wk for a period of approximately six wk for the NCI-H358 bearing mice and four wk for the A673 bearing mice. Tumor volume was calculated according to the formula: volume=L×W×H, where L=length, W=width, H=height.

HT1080 fibrosarcoma = test: Treatment of established HT1080 xenografts; assay type: in vivo, mouse; conditions: 100 μg i.p. every other day
Description: as §1, §2

[4] = tested on: NCI-H358 NSCLC and HT29 colon adenocarcinoma xenografts and normal organs; test: In vivo localization to human tumor xenografts in mice
Description: Tumors were grown subcutaneously in immunocompromised mice (NCI-H358 NSCLC in nu/nu mice and HT29 colon adenocarcinoma in SCID mice) until the tumnor volume was approximately 1 cm^3. 100 μg of unlabeled antibody for studies using SCID mice, or 100 μg of biotinylated antibody for studies using nude mice, was injected intravenously via a tail vein. Twenty four hours later, the mice were anesthetized, perfused with PBS, and tumnor and organs including heart, lungs, liver, kidneys, intestines and spleen were collected and snap frozen in liquid nitrogen.
The tumor and organs from each mouse were sectioned on a cryostat and stained for antibody immunohistochemically as above, with the exception that sections from the nude mice were developed using peroxidase labeled streptavidin-biotin complex (Dako, Carpinteria, Calif.) and the sections from the SCID mice were developed using two peroxidase-conjugated secondary antibodies, a goat anti-mouse IgG+IgM followed by a rabbit anti-goat IgG.
100 μg of GV39M and 3E7 or isotype-matched control IgG were injected into SCID mice bearing HT29 human colonic adenocarcinomas. Twenty-four hours later, the mice were sacrificed, exsanguinated and the tumors and tissues were removed. Frozen sections of the tumors and tissues were analyzed immunohistochemically to determine the binding and distribution of the antibodies (Table 4).

A673 rhabdomyosarcoma [5] = test: Growth inhibition of newly-implanted A673 xenografts; assay type: in vivo, mouse; conditions: 100 μg i.p. 2 times per wk from day 1, nu/nu mice
Description: as §3, §4

VEGFR1 (Flt-1/Fc) = test: ELISA, VEGF binding to VEGFR1-coated wells; conditions: Table 5
Description: (§5) FIG. 2. […] The plate was then incubated with rabbit anti-VEGF (A-20, Santa Cruz Biotechnology, Inc.) at 1 μg/ml and developed using a peroxidase conjugated goat anti-rabbit antibody. Assays were performed in triplicate. Mean percent binding in the absence of antibody is shown, together with the standard deviation.
(§6) The assay was also performed by coating wells of a microtiter plate with either control or test IgG.

[6] = tested on: VEGFR2 (KDR/Flk-1; sFlk-1); test: ELISA, VEGF binding to VEGFR2-coated wells; parameters: species or system mouse
Description: as §5, §6

[7] = biological target: T1, denatured VEGF121 and VEGF165 (Homo sapiens, UniProt P15692); test: Western blot analysis; assay type: binding; conditions: reducing and non-reducing conditions
T1 sequence (P15692 27-191 isoform P15692-4): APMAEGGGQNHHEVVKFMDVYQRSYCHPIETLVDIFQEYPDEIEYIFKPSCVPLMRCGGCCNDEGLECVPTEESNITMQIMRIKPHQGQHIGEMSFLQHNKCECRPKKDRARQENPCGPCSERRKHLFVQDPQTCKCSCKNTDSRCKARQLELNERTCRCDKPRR
Description: The nitrocellulose membrane was blocked using Sea-Block PP82-41 (East Coast Biologics, Berwick, Me.), and probed with primary antibodies using a mini-blotter apparatus (Immunetics, Cambridge, Mass.). The membranes were developed after incubation with the appropriate peroxidase-conjugated secondary antibody by ECL enhanced chemiluminescence.
Western blot analyses of anti-VEGF antibodies were conducted by separating VEGF165 in the presence of 5% FCS using SDS-PAGE on a 12% gel and analyzing by a standard western blotting protocol using ECL detection. The primary antibodies were incubated with the nitrocellulose membrane using a multi-lane mini-blotter apparatus.

[8] = tested on: LS174T colon adenocarcinoma; test: Treatment of established LS174T tumors; assay type: in vivo, mouse; conditions: mice with established tumors
A673 rhabdomyosarcoma [9] = test: Treatment of established A673 tumors; assay type: in vivo, mouse; conditions: mice with established tumors
[10] = biological target: T2, VEGF alone or VEGF associated with sFlk-1 (VEGF:Flk-1) (Homo sapiens, UniProt P15692); test: Indirect and capture ELISA, VEGF alone vs VEGF associated with sFlk-1; assay type: binding
T2 sequence (P15692 27-191 isoform P15692-4): T1 sequence (P15692 27-191 isoform P15692-4)
Description: The Flk-1/SEAP protein was produced and purified as described by Tessler et al. (1994). Basically, the extracellular domain of Flk-1(sFlk-1) was produced in Spodoptera frugiperda (Sf9) cells and purified by immunoaffinity techniques utilizing a monoclonal anti-Flk-1 antibody (1A8). sFlk-1 was then biotinylated and bound on avidin-coated plates.
The reactivity was determined as described above for the initial screening.
A capture ELISA was also developed. In the capture ELISA, microtiter plates were coated overnight at 4° C. with 100 ng of the indicated antibody. […] Streptavidin conjugated to peroxidase (Kirkegaard & Perry Laboratories, Inc.), diluted 1:2000, was used as a second layer and developed.

[11] = 24 hours after i.v. antibody, 2C3 in NCI-H358/nu/nu, 3E7 and GV39M in HT29/SCID mice

For 2C3-GUS [Clone 2C3-GUS], the “t 1/2β, clearance from the blood” value [1] was “about 25 hours”, the “t½α, clearance from the blood” value [1] was “about 6 hours” and the “Localization in tumor after i.v. injection” value [2] was “specifically localized to tumor vasculature and surrounding tumor stroma”. For the same substance, the “Staining of normal tissues after i.v. injection” value [2] was “unstained” and the “Enzymatic activity of GUS” value (GUS enzymatic activity) was “retained enzymatic activity”.
In the case of “2C3: anti-VEGF monoclonal antibody, IgG2a,k, hybridoma ATCC PTA 1595; blocks VEGF binding to VEGFR2 but not VEGFR1 [Clone 2C3]”, the “Blocks VEGF-induced proliferation” value [3] is reported as “Yes”, the “Mean tumor volume after approximately 14 wk of treatment” value (NCI-H358 NSCLC tumors; FIG. 5A study, 100 μg, at start 480 mm^3 (2C3), 428 mm^3 (3E7)) is reported as 84 mm^3 and the “Decrease in mean tumor volume” value (NCI-H358 NSCLC tumors; FIG. 5A study, approximately 14 wk) is reported as “approximately 80%”. For the same substance, the “Mean tumor weight at the end of the study” value (NCI-H358 NSCLC tumors; FIG. 5A study, day 116) was 0.054 g, the “Mean tumor volume at the end of the study, % of the initial mean tumor volume” value (NCI-H358 NSCLC tumors; established tumors 300-450 mm^3, 50-100 μg i.p. every 3-5 days, approximately 10 weeks of treatment) was 30% and the “Final tumor volume, NCI-H358 NSCLC” value (NCI-H358 NSCLC) was “approximately 150 mm^3”. For the same substance, the “Effect on growth of HT1080 tumors” value (HT1080 fibrosarcoma) was “arrested the growth of the tumors”, the “Immunohistochemical Reactivity, Heart” value [4, 11] was “−” and the “Immunohistochemical Reactivity, Intestine” value [4, 11] was “−”. The “Immunohistochemical Reactivity, Kidney” value [4, 11] was “−”, the “Immunohistochemical Reactivity, Liver” value [4, 11] was “−” and the “Immunohistochemical Reactivity, Lung” value [4, 11] was “−”. For the same substance, the “Immunohistochemical Reactivity, Spleen” value [4, 11] was “−”, the “Immunohistochemical Reactivity, Tumor” value [4, 11] was 3+ and the “In vivo tumor localization pattern” value ([4]; CT connective tissue, BV blood vessels) was “Moderate to strong”. The “Localization in the HT29 human tumor model” value ([4]; HT29) was “localized strongly to the connective tissue”, the “In vivo normal mouse tissue localization” value ([4]; mouse, in vivo) was “None detectable” and the “Structure specifically bound after i.v. injection” value ([4]; mouse, in vivo, iv) was “tumor stroma”. The “Final tumor volume, A673 rhabdomyosarcoma” value (A673 rhabdomyosarcoma [5]) was “approximately 150 mm^3”, the “Blocks VEGF from binding to VEGFR1” value (VEGFR1 (Flt-1/Fc)) was “No” and the “Blocking of VEGF binding to VEGFR2 in ELISA” value ([6]; 100-1000 fold excess) was “blocked”. For the same substance, the “Reduction in VEGF binding to VEGFR2” value ([6]; 100 fold molar excess over VEGF) was “about 74%”, the “VEGF bound to VEGFR2-coated wells, % of the amount bound in the absence of antibody” value ([6]; 1000-fold molar excess over VEGF (1 nM VEGF)) was ~19% and the “Reduction in VEGF binding to VEGFR2” value ([6]; 1000 fold molar excess over VEGF) was “about 81%”. The “Blocks VEGF from binding to VEGFR2” value ([6]; Table 5) was “Yes”, the “Reactivity with VEGF on western blots” value [7] was “react” and the “Effect on growth of established LS174T tumors” value [8] was “significantly slowed the growth”. The “Effect on growth of established A673 tumors” value (A673 rhabdomyosarcoma [9]) was “significantly slowed the growth” and the “Predominant Reactivity” value [10] was “VEGF”.
